# Paper PMC3234216 (PLoS Pathogens, 2011)
# B1: ANTXR2 VWA-domain (anthrax toxin receptor type 2, extracellular von Willebrand factor type A domain) (domain or fragment)
# chain: SCRRAFDLYFVLDKSGSVANNWIEIYNFVQQLAERFVSPEMRLSFIVFSSQATIILPLTGDRGKISKGLEDLKRVSPVGETYIHEGLKLANEQIQKAGGLKTSSIIIALTDGKLDGLVPSYAEKEAKISRSLGASVYCVGVLDFEQAQLERIADSKEQVFPVKGGFQALKGIINSILAQSC
# notes: also called capillary morphogenesis protein 2; CMG2
# Target: PA63 heptamer (63 kD form of anthrax toxin protective antigen) (Bacillus anthracis, UniProt P13423)
# Experiment: NMR titration
# Conditions: both partners purified
# Chain of PA63 heptamer (63 kD form of anthrax toxin protective antigen) (P13423 197-764): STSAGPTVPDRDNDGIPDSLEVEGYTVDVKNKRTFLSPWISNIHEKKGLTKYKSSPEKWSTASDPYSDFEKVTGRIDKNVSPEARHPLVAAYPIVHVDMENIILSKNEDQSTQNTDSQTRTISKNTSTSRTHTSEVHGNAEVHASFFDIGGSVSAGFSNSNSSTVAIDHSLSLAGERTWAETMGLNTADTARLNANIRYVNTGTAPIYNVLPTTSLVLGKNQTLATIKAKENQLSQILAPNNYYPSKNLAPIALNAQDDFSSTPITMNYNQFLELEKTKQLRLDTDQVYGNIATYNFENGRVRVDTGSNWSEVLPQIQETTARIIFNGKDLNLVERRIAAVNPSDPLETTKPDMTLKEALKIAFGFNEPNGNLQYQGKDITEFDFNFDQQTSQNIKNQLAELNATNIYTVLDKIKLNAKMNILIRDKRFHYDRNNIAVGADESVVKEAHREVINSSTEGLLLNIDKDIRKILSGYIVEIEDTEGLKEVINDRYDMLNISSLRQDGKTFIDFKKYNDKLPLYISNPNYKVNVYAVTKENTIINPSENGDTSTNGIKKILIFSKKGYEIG
binder,measurement,value
B1,binding result,binds
